The results in this text go back to publication PMC4672880.

The experiment deals with GCNt stabilized pre-fusion soluble version of the NiV-F glycoprotein (NiV-sFGCNt) (Nipah virus) (UniProt Q9IH63). The experiment in a line: crystal structure.

The term stoichiometry N denotes a count of units in the complex or per binding partner.

Consider “GCNt stabilized pre-fusion soluble version of the NiV-F glycoprotein (NiV-sFGCNt) (from UniProt Q9IH63 27-488) (domain or fragment)”, for which the stoichiometry N was 3.
